Measured values published in US20230270824A1, “INTERFERON-BASED CANCER TREATMENT METHOD AND PHARMACEUTICAL COMPOSITION” (XIAMEN AMOYTOP BIOTECH CO., LTD., priority 2019, published 2023).
Several values for one entry are separate records, joined by “and”; a condition that tells them apart may be missing. Equal values may be shown once.

What was measured:
[1] = Pharmacokinetic study of single subcutaneous injection in healthy BALB/c mice (double-antibody sandwich ELISA)
Procedure: 6-8 weeks old, SPF grade BALB/c mice (N=60, with fifty-fifty of male and female mice) were injected with a single injection of 1 μg/mouse PEG-mIFN-α4 subcutaneously on the back of the neck. Plasma samples were collected before the injection (0 h) and after the injection at 15 h, 24 h, 36 h, 48 h, 72 h, 96 h, 120 h, 168 h, 216 h, 264 h, 312 h, to determine the blood concentration. Phoenix WinNonlin 6.4 software was used to calculate the pharmacokinetic parameters.

[2] = system: transplanted breast cancer 4T1; assay: Interferon combined with gemcitabine, transplanted breast cancer 4T1 in mice (Example 9); format: in vivo, BALB/c mice; conditions: 53 days after tumor inoculation
Procedure: (§1) In this example, a comparative study on the efficacy of PEG-mIFN-α4 intermittent administration (once every 48 hours for 3 consecutive times, then drug withdrawal for 144 hours; for 5 rounds), PEG-mIFN-α4 continuous administration (once every 48 hours for 25 consecutive times), PEG-mIFN-α4 in combination with gemcitabine (PEG-mIFN-α4: once every 48 hours for 3 consecutive times, then drug withdrawal for 240 hours, 4 rounds; gemcitabine: once a week) on transplanted breast cancer 4T1 in mice was performed.
(§2) On the day when the tumor was inoculated, they were randomly divided into PEG-mIFN-α4 continuous administration group (N=24, female 12, male 12), PEG-mIFN-α4 intermittent administration group (N=24, female 12, male 12), the normal saline control group (N=24, female 12, male 12), the gemcitabine only group (N=24, female 12, male 12), and PEG-mIFN-α4 combined with gemcitabine group (N=24, female 12, male 12).
For the PEG-mIFN-α4 intermittent administration group, PEG-mIFN-α4 was administered once every 48 hours for 3 consecutive times, then drug withdrawal for 144 hours; for 5 rounds. For the PEG-mIFN-α4 continuous administration group, PEG-mIFN-α4 was administered once every 48 hours. For the PEG-mIFN-α4 combined with gemcitabine group, PEG-mIFN-α4 was administered once every 48 hours for 3 consecutive times, then drug withdrawal for 240 hours; for 4 rounds; and gemcitabine was administered once a week. For the gemcitabine only group, gemcitabine was administered once a week. For the saline control group, equal volume of saline was administered. Gemcitabine was injected intraperitoneally, 60 mg/kg.
SAS9.4 software was used for comparing the difference in mortality, and the statistical tests were all two-sided tests.

[3] = system: transplanted colorectal cancer CT26; assay: Interferon combined with gemcitabine, transplanted colorectal cancer CT26 in mice (Example 7); format: in vivo, BALB/c mice; conditions: 110 days observation
Procedure: as §1, with “for three” for “for 3”, “for 11” for “for 5”, “for 55” for “for 25”, “hours, 8” for “hours, 4”, “transplanted colorectal” for “transplanted breast”, “cancer CT26” for “cancer 4T1”
The anticancer agent is Gemcitabine (Jiangsu HAOSEN Pharmaceutical).
as §2
Gemcitabine was injected intraperitoneally, 60 mg/kg. […] For the PEG-mIFN-α4 intermittent administration group, PEG-mIFN-α4 was administered once every 48 hours for three consecutive times, then drug withdrawal for 144 hours; for 11 rounds. For the PEG-mIFN-α4 continuous administration group, PEG-mIFN-α4 was administered once every 48 hours. For the PEG-mIFN-α4 combined with gemcitabine group, PEG-mIFN-α4 was administered once every 48 hours for three consecutive times, then drug withdrawal for 240 hours; for 8 rounds; and gemcitabine was administered once a week. For the gemcitabine only group, gemcitabine was administered once a week. For the saline control group, equal volume of saline was administered.
Survival analysis was performed for all groups to compare the differences between groups.

[4] = system: transplanted liver cancer H22; assay: Continuous vs intermittent administration, transplanted liver cancer H22 in mice (Example 4); format: in vivo, BALB/c mice; conditions: continuous administration: 1 μg s.c. once every 48 hours, 21 times, Day 40 after tumor inoculation

B1: PEG-mIFN-α4: deglycosylated recombinant mouse interferon α4 modified with 40 kD Y-type polyethylene glycol (YPEG-NHS); SEQ ID NO: 6 (protein)
chain: CDLPHTYNLGNKRALTVLEEMRRLPPLSCLKDRKDFGFPLEKVDNQQIQKAQAILVLRDLTQQILNLFTSKDLSATWNATLLDSFCNDLHQQLNDLKACVMQEPPLTQEDSLLAVRTYFHRITVYLRKKKHSLCAWEVIRAEVWRALSSSTNLLARLSEEKE
modifications: 40 kD Y-type PEG; deglycosylated; amino acid sequence of peginterferon murine 4
**Q.** For B1, which Individual blood concentration ([1]; collected at 96 h, individual mice 1-5, single s.c. 1 μg/mouse) is on record?
**A.** 87.5 ng/mL

**Q.** What about the “Cl_F—obs” value ([1]; mouse, in vivo, sc) of the same molecule?
**A.** 0.07 mL/h

**Q.** What about the T1/2 ([1]; mouse, in vivo, sc) of the same molecule?
**A.** 28.3 h

**Q.** What about the Tmax ([1]; mouse, in vivo, sc) of the same molecule?
**A.** 24 h

**Q.** What about the “Vz_F—obs” value ([1]; mouse, in vivo, sc) of the same molecule?
**A.** 2.91 mL

**Q.** And the Mortality ([2]; continuous administration (once every 48 hours, 25 times))?
**A.** 87.5% and 58.3%

**Q.** And the Mortality ([2]; intermittent administration (every 48 h x3, withdrawal 144 h, 5 rounds))?
**A.** 87.5%

**Q.** And the “Mean survival period (days post tumor inoculation)” value ([3]; continuous administration: once every 48 hours, 55 times)?
**A.** 53.5 days

**Q.** And the “Mean survival period (days post tumor inoculation)” value ([3]; intermittent administration: 1 μg/mouse every 48 h x3, withdrawal 144 h, 11 rounds)?
**A.** 89.0 days

**Q.** What about the “Median survival period (Time after tumor inoculation, days)” value [4] of the same molecule?
**A.** 38 days and 38.0 days
